Data reported in patent US20260015434A1, “ANTIBODY MATERIALS AND METHODS TARGETING MICROBIAL POLYSACCHARIDES” (priority 2022, published 2026).

What was measured:
[1] = system: TG10 binding to PNAG 0; assay: Monosaccharide inhibition of antibody binding on the array
Protocol: (§1) This example describes how TG10 binding is inhibited by glucosamine. For small molecule inhibition assays, arrays were blocked and washed as previously described. Antibodies F598 and TG10 were diluted to 5 μg/mL in binding buffer. 20 mM N-Acetyl glucosamine and 20 mM glucosamine in binding buffer was prepared and an equal volume of the monosaccharide solutions were added to the diluted antibodies. Antibody/monosaccharide samples were incubated at room temperature for 30 min with rotation prior to being applied to the array. For the TG10 glucosamine IC50 inhibition assay, TG10 was diluted to 30 nM in binding buffer. A pH adjusted 1M stock of Glucosamine.HCl in PBS with 3% BSA (pH 7.2) was prepared and a serial dilution in binding buffer was made. Equal volumes of TG10 and each of the serial diluted glucosamine stocks was combined. Antibody/monosaccharide samples were incubated at RT for 30 min with rotation prior to being applied to the array.
(§2) Monosaccharide inhibition of both TG10 and F598 was studied on the array. The antibodies were incubated with 10 mM glucosamine, galactosamine, N-acetyl glucosamine, and N-acetyl galactosamine and then applied to the array. The binding of TG10 with PNAG 0 and of F598 with PNAG 31 were analyzed with and without monosaccharide inhibitors (FIGS. 5A-5D). Glucosamine had the greatest effect on TG10 binding to PNAG 0, reducing signal intensity by 94% at 10 mM […] (100% at 100 mM […]). As expected, N-acetyl glucosamine inhibited F598 binding with PNAG 31, reducing RFU by 74% at 10 mM GlcNAc and 99% at 100 mM GlcNAc. […] To further illuminate the small molecule inhibition properties of glucosamine on TG10, IC50 values for glucosamine was determined by titrating GlcNH2 with TG10.

[2] = system: F598 binding with PNAG 31; assay: as above
Protocol: as §1, §2

[3] = target: TG10 binding to PNAG 0, PNAG 1, and PNAG 16; assay: TG10 glucosamine IC50 inhibition assay on the array; conditions: three best binding conjugates on the array (PNAG 0, PNAG 1, PNAG 16); TG10 diluted to 30 nM
Protocol: as §1
Monosaccharide inhibition of both TG10 and F598 was studied on the array. […] The binding of TG10 with PNAG 0 and of F598 with PNAG 31 were analyzed with and without monosaccharide inhibitors (FIGS. 5A-5D). […] To further illuminate the small molecule inhibition properties of glucosamine on TG10, IC50 values for glucosamine was determined by titrating GlcNH2 with TG10.

[4] = system: PNAG conjugates on the array (dPNAG, PNAG and intermediate levels of deacetylation); assay: Neoglycoprotein (glycan) microarray binding, 816-component array; conditions: single point mutations
Protocol: (§3) Neoglycoprotein (NGP) microarray fabrication was performed as follows. Several NGP microarrays were constructed as previously described. Two large arrays (8 duplicate arrays per slide) composed of 815 and 870 neoglycoproteins, glycoproteins, glycopeptide conjugates, and controls were constructed and used for the experiments in this report. Additionally, a PNAG-focused array (16 duplicates per slide) with 49 array components was fabricated and used to determine apparent KD values. Array component parent stocks were diluted to 125-200 μg/mL into print buffer (1×PBS buffer with 2.5% (v/v) glycerol, 0.0005% (v/v) Triton-X 100, 0.0005 μg/mL soluble print dye 0.05 μg/mL Atto 532 (Sigma 06699). Formulated components were printed in duplicate onto 2D-Epoxy functionalized glass slides (Poly-An #104-00-221) or SuperEpoxy 2 microarray slides (ArrayIt) using an Arrayit NanoPrint LM60 arrayer at 60% humidity. Following the print, slides were scanned in a microarray fluorescence scanner (Innopsys, InnoScan 1100 AL) to validate that array components were successfully deposited onto the slide surface. Binding profiles for a representative set of lectins and antibodies were used as QC for each printed microarray batch. The printed NGP microarrays were stored under vacuum at −20° C.
(§4) Antibody selectivity and apparent KD were determined using a NGP microarray. A pre-assay scan was performed to control for missing features. Selectivity and affinity of most mAbs were measured on the full array. A focused array was used to acquire an apparent KD measurement. A slide module (8 well for full array and 16-well for focused array) was mounted onto each slide and blocking buffer (3% BSA in PBS, pH 7.4) was applied to each well of the array. Blocking was performed overnight at 4° C. mAbs were serial diluted in binding buffer (1% BSA in PBST, pH 7.4). Following the block, wells were washed 4× with wash buffer (PBST, PBS with 0.05% tween-20). Primary mAb incubation was performed for 2.5 hours at 37° C. The wells were washed 5× with wash buffer. A CY3-labeled secondary antibody specific for the Fc portion of human IgG was diluted 500 fold into binding buffer and added to each array well (Jackson ImmunoResearch, 109-165-098). Secondary mAb incubation was performed for 1.5 hours at 37° C. Wells were washed 5× with wash buffer. Slides were removed from the slide module and submerged in wash buffer for 5 minutes. Washed slides were dried by centrifugation @ 1000×g in a centrifuge quipped with a swing bucket rotor. Fluorescent scans were obtained at multiple PMT values to maximize dynamic range. Raw data was analyzed using GenePix 7.0 software as previously described. Selectivity profiles and apparent KD curves were plotted in excel and Graphpad Prism. Apparent Kos were determined using one-site specific binding algorithm in Graphpad Prism.

[5] = system: PNAG conjugates on the array (dPNAG, PNAG and intermediate levels of deacetylation); assay: as above; conditions: ability to bind both dPNAG and PNAG and intermediate levels of deacetylation
[6] = system: PNAG 0 (fully deacetylated glucosamine pentasaccharide conjugate); assay: Glycan microarray binding / apparent KD; conditions: fully deacetylated PNAG conjugate PNAG 0
Protocol: as §3, §4

| Molecule | reduction of signal intensity of TG10 binding to PNAG 0 ([1]; 10 mM monosaccharide) | function of TG10 variant (binding to PNAG conjugates on the array) [4] | PNAG Binding on Array [5] | effect of single point mutation on binding between TG10 and PNAG 0 [6] | other results |
| --- | --- | --- | --- | --- | --- |
| CC(=O)N[C@H]1C(O)O[C@H](CO)[C@H](O)[C@@H]1O (stereo partly drawn) [N-acetyl galactosamine] | unchanged |  |  |  |  |
| CC(=O)N[C@H]1C(O)O[C@H](CO)[C@@H](O)[C@@H]1O (stereo partly drawn) [N-acetyl glucosamine] | 15% |  |  |  | reduction of RFU of F598 binding with PNAG 31 ([2]; 10 mM monosaccharide): 74%; reduction of RFU of F598 binding with PNAG 31 ([2]; 100 mM monosaccharide): 99% |
| N[C@H]1C(O)O[C@H](CO)[C@H](O)[C@@H]1O (stereo partly drawn) [galactosamine] | 45% |  |  |  |  |
| N[C@H]1C(O)O[C@H](CO)[C@@H](O)[C@@H]1O (stereo partly drawn) [glucosamine] | 94% |  |  |  | reduction of signal intensity of TG10 binding to PNAG 0 ([1]; 100 mM monosaccharide): 100%; IC50 [3]: 1 to 2 mM |
| TG10 W38A: TG10 HC W38A (SEQ ID NO: 47) with TG10 LC (SEQ ID NO: 12) (antibody, V domains shown, Site directed mutatation of TG10 HC Variable Region; TG10 Light Chain Variable Region) VH: EVQLVESGGGLVQPGGSLRLSCAVSGFPFSSYAMSWVRQAPGKGLEWVANIKEDGSEKYYVDSVKGRFTISRDNAKNSLYLQMNSLRAEDTAVYYCATDPDVGLSDSWGQGTLVTVSS VL: EIVLTQSPGTLSLSPGDRATHSCRASQSVSRSYLAWYQQKPGQTPRLFIYGASNRATGIPDRFSGSGSGTYFTLTISRLEPEDFAVYYCQQYDSAPDTFGQGTRLEIK |  | functionally dead | No | completely removed binding |  |
| TG10 LC D116A: TG10 HC (SEQ ID NO: 3) with TG10 LC D116A (SEQ ID NO: 49) (antibody, V domains shown, TG10 Heavy Chain Variable Region; Site directed mutatation of TG10 HC Variable Region) VH: EVQLVESGGGLVQPGGSLRLSCAVSGFPFSSYWMSWVRQAPGKGLEWVANIKEDGSEKYYVDSVKGRFTISRDNAKNSLYLQMNSLRAEDTAVYYCATDPDVGLSDSWGQGTLVTVSS VL: EIVLTQSPGTLSLSPGDRATHSCRASQSVSRSYLAWYQQKPGQTPRLFIYGASNRATGIPDRFSGSGSGTYFTLTISRLEPEDFAVYYCQQYDSAPATFGQGTRLEIK |  | functionally dead | No | completely removed binding |  |
| TG10 LC Y38A: TG10 HC (SEQ ID NO: 3) with TG10 LC Y38A (SEQ ID NO: 43) (antibody, V domains shown, TG10 Heavy Chain Variable Region; Site directed mutation of TG10 LC Variable Region) VH: EVQLVESGGGLVQPGGSLRLSCAVSGFPFSSYWMSWVRQAPGKGLEWVANIKEDGSEKYYVDSVKGRFTISRDNAKNSLYLQMNSLRAEDTAVYYCATDPDVGLSDSWGQGTLVTVSS VL: EIVLTQSPGTLSLSPGDRATHSCRASQSVSRSALAWYQQKPGQTPRLFIYGASNRATGIPDRFSGSGSGTYFTLTISRLEPEDFAVYYCQQYDSAPDTFGQGTRLEIKLC |  | functionally dead |  | completely removed binding |  |
| TG10 D107A: TG10 HC D107A (SEQ ID NO: 41) with TG10 LC (SEQ ID NO: 12) (antibody, V domains shown, Site directed mutation of TG10 HC Variable Region; TG10 Light Chain Variable Region) VH: EVQLVESGGGLVQPGGSLRLSCAVSGFPFSSYWMSWVRQAPGKGLEWVANIKEDGSEKYYVDSVKGRFTISRDNAKNSLYLQMNSLRAEDTAVYYCATAPDVGLSDSWGQGTLVTVSS VL: EIVLTQSPGTLSLSPGDRATHSCRASQSVSRSYLAWYQQKPGQTPRLFIYGASNRATGIPDRFSGSGSGTYFTLTISRLEPEDFAVYYCQQYDSAPDTFGQGTRLEIK |  | functionally dead |  | completely removed binding |  |
| TG10 E57A: TG10 HC E57A (SEQ ID NO: 37) with TG10 LC (SEQ ID NO: 12) (antibody, V domains shown, Site directed mutation of TG10 HC Variable Region; TG10 Light Chain Variable Region) VH: EVQLVESGGGLVQPGGSLRLSCAVSGFPFSSYWMSWVRQAPGKGLEWVANIKADGSEKYYVDSVKGRFTISRDNAKNSLYLQMNSLRAEDTAVYYCATDPDVGLSDSWGQGTLVTVSS VL: EIVLTQSPGTLSLSPGDRATHSCRASQSVSRSYLAWYQQKPGQTPRLFIYGASNRATGIPDRFSGSGSGTYFTLTISRLEPEDFAVYYCQQYDSAPDTFGQGTRLEIK |  |  | Yes | greatly reduce |  |
| TG10 D109A: TG10 HC D109A (SEQ ID NO: 42) with TG10 LC (SEQ ID NO: 12) (antibody, V domains shown, Site directed mutatation of TG10 HC Variable Region; TG10 Light Chain Variable Region) VH: EVQLVESGGGLVQPGGSLRLSCAVSGFPFSSYWMSWVRQAPGKGLEWVANIKEDGSEKYYVDSVKGRFTISRDNAKNSLYLQMNSLRAEDTAVYYCATDPAVGLSDSWGQGTLVTVSS VL: EIVLTQSPGTLSLSPGDRATHSCRASQSVSRSYLAWYQQKPGQTPRLFIYGASNRATGIPDRFSGSGSGTYFTLTISRLEPEDFAVYYCQQYDSAPDTFGQGTRLEIK |  |  |  | greatly reduce |  |
| TG10 D109K: TG10 HC D109K (SEQ ID NO: 48) with TG10 LC (SEQ ID NO: 12) (antibody, V domains shown, Site directed mutatation of TG10 HC Variable Region; TG10 Light Chain Variable Region) VH: EVQLVESGGGLVQPGGSLRLSCAVSGFPFSSYWMSWVRQAPGKGLEWVANIKEDGSEKYYVDSVKGRFTISRDNAKNSLYLQMNSLRAEDTAVYYCATDPKVGLSDSWGQGTLVTVSS VL: EIVLTQSPGTLSLSPGDRATHSCRASQSVSRSYLAWYQQKPGQTPRLFIYGASNRATGIPDRFSGSGSGTYFTLTISRLEPEDFAVYYCQQYDSAPDTFGQGTRLEIK |  | functionally dead | No | completely removed binding |  |
